Reference: paper PMC9770967, “Native holdup (nHU) to measure binding affinities from cell extracts” (Science Advances, 2022)
Blank lines part the entries; values can stand above or below the molecule they belong to.

Tests used:
Assay type in all cases: binding, human
full-length SNX27 = test: nHU-MS, recombinant full-length SNX27 bait, total Jurkat extracts; conditions: apparent, Fig. 4D, n = 6
Description: (§1) The empty His6-AviTag-MBP-TEV vector was used to produce biotinylated MBP for control experiments. Proteins were coexpressed with BirA biotin ligase (PET21a-BirA, Addgene, no. 20857) in Escherichia coli BL21(DE3) cells. At isopropyl-β-D-thiogalactopyranoside (IPTG) induction (1 mM IPTG at 18°C overnight), 50 μM biotin was added to the media. Harvested cells were lysed in a buffer containing 50 mM tris (pH 7.5), 150 to 300 mM NaCl, 50 μM biotin, 2 mM β-mercaptoethanol, cOmplete EDTA-free protease inhibitor cocktail (Roche, Basel, Switzerland), 1% Triton X-100, and trace amount of deoxyribonuclease, ribonuclease, and lysozyme. Lysates were frozen at −20°C before further purification steps. Lysates were sonicated and centrifuged for clarification. Expressed proteins were captured on in-house prepacked Ni-IDA (Protino Ni-IDA Resin, Macherey-Nagel, Duren, Germany) columns and were washed with at least 10 column volumes of cold wash buffer [50 mM tris (pH 7.5), 150 mM NaCl, and 2 mM β-mercaptoethanol] before elution with 250 mM imidazole. The Ni elution was collected directly on a preequilibrated amylose column (amylose high flow resin, New England Biolabs, Ipswich, MA). Amylose column was washed with 5 column volumes of cold wash buffer before fractionated elution in a buffer containing 25 mM Hepes (pH 7.5), 150 mM NaCl, 1 mM TCEP, 10% glycerol, 5 mM maltose, and cOmplete EDTA-free protease inhibitor cocktail. The concentration of proteins was determined by their ultraviolet absorption at 280 nm before aliquots were snap-frozen in liquid nitrogen and stored at −80°C.
(§2) For saturating streptavidin resin with biotinylated peptides or biotin, 50 μl of streptavidin resin was mixed with biotin or peptide at 40 to 60 μM concentration in 6 to 6.5 resin volume for 60 min. To saturate streptavidin resin with biotinylated proteins, 50 μl of streptavidin resin (Streptavidin Sepharose High Performance, Cytiva) was mixed with biotinylated MBP or MBP-PDZ at 40 to 50 μM concentration in 20× resin volume for 60 min. After saturation, resins were washed a single time [10 resin volume, holdup buffer: 50 mM tris (pH 7.5), 300 mM NaCl, and 1 mM TCEP, 0.22-μm filtered] and were depleted with biotin (10 resin volume, 10 min, holdup buffer supplemented with 100 μM biotin). Last, resins were washed two times (10 resin volume, holdup buffer).
(§3) For single-point nHU experiments carried out at ~10 μM bait concentration, 50 μl of saturated streptavidin resin was mixed with 200 μl of cell lysate (2 mg/ml). Titration experiments were carried out by mixing control and bait-saturated resin and keeping the total resin volume constant; e.g., ~5 μM bait concentration can be achieved by mixing 25 μl of bait-saturated streptavidin resin with 25 μl of control resin and 200 μl of cell lysate (2 mg/ml). Control and bait-saturated resins were prepared in larger amounts, and a serial dilution was prepared with these presaturated resins to achieve different resin ratios.
Unless specified elswhere, the nHU mixture was incubated at 4°C for 2 hours. After the incubation ended, the resin was separated from the supernatant by a brief centrifugation (15 s, 2000 g). Then, half of the supernatant was removed by pipetting without any delay to avoid any resin contamination; e.g., 100 μl of supernatant is collected if 200 μl of cell lysate was used as analyte. Alternatively, the supernatant can be centrifuged an additional time to clarify it further, removing any possible resin contamination. […]

SNX27_PDZ [1] = test: AP-MS control pull-down on leftover resin, SNX27_PDZ bait, total Jurkat extracts; conditions: AP-MS control pull-down, total Jurkat extract
Description: Leftover beads from nHU-MS experiments were washed three times immediately after the separation of the supernatant [10 resin volume in buffer containing 50 mM tris (pH 8.5), 150 mM NaCl, 1% Triton X-100, 10× cOmplete EDTA-free protease inhibitor cocktail, 2 mM EDTA, and 1 mM TCEP]. Then, the beads were washed two times [10 resin volume buffer containing 50 mM tris (pH 8.5), 150 mM NaCl, and 1 mM TCEP]. Last, captured protein was eluted from the resin in two steps, and the eluted fractions were pooled. For each elution, the beads were incubated for 30 min with three resin volume buffer containing 20 mM tris (pH 8.5), 100 mM NaCl, 500 μM TCEP, and 8 M urea. Between each step, the beads were separated by mild centrifugation, and the supernatant was removed by gentle pipetting.
The nHU samples were precipitated with trichloroacetic acid (TCA) 20% overnight at 4°C and centrifuged at 14,000 rpm for 10 min at 4°C. The protein pellets were washed twice with 1 ml of cold acetone and air-dried. The protein extracts were solubilized in 8 M urea, reduced with 5 mM TCEP for 30 min, and alkylated with 10 mM iodoacetamide for 30 min in the dark. Double digestion was performed at 37°C with 500 ng of endoproteinase Lys-C (Wako, Richmond, USA) for 4 hours, followed by fourfold dilution and an overnight digestion with 500 ng of trypsin (Promega, Charbonnieres les Bains, France). Peptide mixtures were then desalted on a C18 spin-column and dried on a speed vacuum.
Samples were analyzed using an Ultimate 3000 nano-RSLC coupled in line via a nano-electrospray ionization source, with an LTQ-Orbitrap ELITE mass spectrometer (Thermo Fisher Scientific, San Jose, CA) or with the Orbitrap Exploris 480 mass spectrometer (Thermo Fisher Scientific, Bremen, Germany) equipped with a high field asymmetric ion mobility spectrometry (FAIMS) module. Peptide mixtures were injected in 0.1% trifluoroacetic acid on a C18 Acclaim PepMap100 trap column [75 μm inner diameter (ID) × 2 cm, 3 μm, 100 Å, Thermo Fisher Scientific] for 3 min at 5 μl/min with 2% acetonitrile (ACN) and 0.1% formic acid (FA) in H2O and then separated on a C18 Acclaim PepMap100 nano-column (75 μm ID × 50 cm, 2.6 μm, 150 Å, Thermo Fisher Scientific) at 300 nl/min and 40°C with a 90-min linear gradient from 5 to 30% buffer B (A: 0.1% FA in H2O/B: 80% ACN, 0.1% FA in H2O) and regeneration at 5% B. Spray voltage was set to 2.1 kV and heated capillary temperature was set to 280°C.
For the Orbitrap Elite, the mass spectrometer was operated in positive ionization mode in data-dependent mode with survey scans from mass/charge ratio (m/z) 350 to 1500 acquired in the Orbitrap at a resolution of 120,000 at m/z 400. The 20 most intense peaks from survey scans were selected for further fragmentation in the linear ion trap with an isolation window of 2.0 Da and were fragmented by collision-induced dissociation (CID) with a normalized collision energy of 35% (TOP 20 CID method). Unassigned and single-charged states were excluded from fragmentation. The ion target value for the survey scans (in the Orbitrap) and the MS2 mode (in the linear ion trap) were set to 1E6 and 5E3, respectively, and the maximum injection time was set to 100 ms for both scan modes. Dynamic exclusion was set to 20 s after one repeat count with mass width at ±10 parts per million (ppm).
Proteins were identified by database search using SequestHT (Thermo Fisher Scientific) with Proteome Discoverer 2.4 software (PD2.4, Thermo Fisher Scientific) on the human FASTA database downloaded from UniProt (reviewed, release 2021_06_03, 20380 entries, https://uniprot.org/, complemented with sequences of likely contaminants, such as MBP, streptavidin, or trypsin). Precursor and fragment mass tolerances were set at 7 ppm and 0.6 Da, respectively, and up to two missed cleavages were allowed. […]

SNX27_PDZ [2] = test: nHU-MS, SNX27_PDZ bait, total Jurkat extracts, series 1; conditions: nHU-MS, total Jurkat extract
Description: as §1, §2, §3
Unless specified elswhere, the nHU mixture was incubated at 4°C for 2 hours. After the incubation ended, the resin was separated from the supernatant by a brief centrifugation (15 s, 2000 g). Then, half of the supernatant was removed by pipetting without any delay to avoid any resin contamination; e.g., 100 μl of supernatant is collected if 200 μl of cell lysate was used as analyte. Alternatively, the supernatant can be centrifuged an additional time to clarify it further, removing any possible resin contamination. In principle, the separation of the supernatant should be as fast as possible since any delay can perturb the equilibrium. […] Alternatively, the resin can be separated from the supernatant using filter plates (e.g., various products of Millipore, Burlington, MA) or spin columns (e.g., Pierce spin cups—cellulose acetate filter from Thermo Fisher Scientific, Waltham, MA) to achieve faster separation. […]

B1: SNX2: component of the SNX-BAR complex (protein, UniProt O60749 1-519, looked up)
Sorting nexin-2: MAAEREPPPLGDGKPTDFEDLEDGEDLFTSTVSTLESSPSSPEPASLPAEDISANSNGPKPTEVVLDDDREDLFAEATEEVSLDSPEREPILSSEPSPAVTPVTPTTLIAPRIESKSMSAPVIFDRSREEIEEEANGDIFDIEIGVSDPEKVGDGMNAYMAYRVTTKTSLSMFSKSEFSVKRRFSDFLGLHSKLASKYLHVGYIVPPAPEKSIVGMTKVKVGKEDSSSTEFVEKRRAALERYLQRTVKHPTLLQDPDLRQFLESSELPRAVNTQALSGAGILRMVNKAADAVNKMTIKMNESDAWFEEKQQQFENLDQQLRKLHVSVEALVCHRKELSANTAAFAKSAAMLGNSEDHTALSRALSQLAEVEEKIDQLHQEQAFADFYMFSELLSDYIRLIAAVKGVFDHRMKCWQKWEDAQITLLKKREAEAKMMVANKPDKIQQAKNEIREWEAKVQQGERDFEQISKTIRKEVGRFEKERVKDFKTVIIKYLESLVQTQQQLIKYWEAFLPEAKAIA
- pKapp (full-length SNX27): 5.04

B2: ZC3HAV1 (protein, UniProt Q7Z2W4 2-902, looked up)
Zinc finger CCCH-type …: ADPEVCCFITKILCAHGGRMALDALLQEIALSEPQLCEVLQVAGPDRFVVLETGGEAGITRSVVATTRARVCRRKYCQRPCDNLHLCKLNLLGRCNYSQSERNLCKYSHEVLSEENFKVLKNHELSGLNKEELAVLLLQSDPFFMPEICKSYKGEGRQQICNQQPPCSRLHICDHFTRGNCRFPNCLRSHNLMDRKVLAIMREHGLNPDVVQNIQDICNSKHMQKNPPGPRAPSSHRRNMAYRARSKSRDRFFQGSQEFLASASASAERSCTPSPDQISHRASLEDAPVDDLTRKFTYLGSQDRARPPSGSSKATDLGGTSQAGTSQRFLENGSQEDLLHGNPGSTYLASNSTSAPNWKSLTSWTNDQGARRKTVFSPTLPAARSSLGSLQTPEAVTTRKGTGLLSSDYRIINGKSGTQDIQPGPLFNNNADGVATDITSTRSLNYKSTSSGHREISSPRIQDAGPASRDVQATGRIADDADPRVALVNDSLSDVTSTTSSRVDDHDSEEICLDHLCKGCPLNGSCSKVHFHLPYRWQMLIGKTWTDFEHMETIEKGYCNPGIHLCSVGSYTINFRVMSCDSFPIRRLSTPSSVTKPANSVFTTKWIWYWKNESGTWIQYGEEKDKRKNSNVDSSYLESLYQSCPRGVVPFQAGSRNYELSFQGMIQTNIASKTQKDVIRRPTFVPQWYVQQMKRGPDHQPAKTSSVSLTATFRPQEDFCFLSSKKYKLSEIHHLHPEYVRVSEHFKASMKNFKIEKIKKIENSELLDKFTWKKSQMKEEGKLLFYATSRAYVESICSNNFDSFLHETHENKYGKGIYFAKDAIYSHKNCPYDAKNVVMFVAQVLVGKFTEGNITYTSPPPQFDSCVDTRSNPSVFVIFQKDQVYPQYVIEYTEDKACVIS
- Ratio_AP (SNX27_PDZ [1]; SNX27/MBP): 128.984
- FC_AP (SNX27_PDZ [1]; SNX27 vs MBP): 7.011
- BINDER_AP (SNX27_PDZ [1]; BINDS / DOES NOT BIND): BINDS
- Ratio_HU (SNX27_PDZ [2]; SNX27/MBP, sheet "SNX27&Jurkat"): 0.6368
- BI_HU (SNX27_PDZ [2]; SNX27 bait vs MBP control, sheet "SNX27&Jurkat"): 0.3632
- pKapp_HU_not_filtered (SNX27_PDZ [2]; SNX27 bait, not filtered for significance): 4.758
- FC_HU (SNX27_PDZ [2]; SNX27 vs MBP control, sheet "SNX27&Jurkat"): -0.651

The next lines start with the values.

- pKapp (full-length SNX27): 5.23
B3: SNX5: component of the SNX-BAR complex (protein, UniProt Q9Y5X3 2-404, looked up)
Sorting nexin-5: AAVPELLQQQEEDRSKLRSVSVDLNVDPSLQIDIPDALSERDKVKFTVHTKTTLPTFQSPEFSVTRQHEDFVWLHDTLIETTDYAGLIIPPAPTKPDFDGPREKMQKLGEGEGSMTKEEFAKMKQELEAEYLAVFKKTVSSHEVFLQRLSSHPVLSKDRNFHVFLEYDQDLSVRRKNTKEMFGGFFKSVVKSADEVLFTGVKEVDDFFEQEKNFLINYYNRIKDSCVKADKMTRSHKNVADDYIHTAACLHSLALEEPTVIKKYLLKVAELFEKLRKVEGRVSSDEDLKLTELLRYYMLNIEAAKDLLYRRTKALIDYENSNKALDKARLKSKDVKLAEAHQQECCQKFEQLSESAKEELINFKRKRVAAFRKNLIEMSELEIKHARNNVSLLQSCIDLFKNN

- pKapp (full-length SNX27): 5.47
B4: SNX6: component of the SNX-BAR complex (protein, UniProt Q9UNH7 1-406, looked up)
Sorting nexin-6: MMEGLDDGPDFLSEEDRGLKAINVDLQSDAALQVDISDALSERDKVKFTVHTKSSLPNFKQNEFSVVRQHEEFIWLHDSFVENEDYAGYIIPPAPPRPDFDASREKLQKLGEGEGSMTKEEFTKMKQELEAEYLAIFKKTVAMHEVFLCRVAAHPILRRDLNFHVFLEYNQDLSVRGKNKKEKLEDFFKNMVKSADGVIVSGVKDVDDFFEHERTFLLEYHNRVKDASAKSDRMTRSHKSAADDYNRIGSSLYALGTQDSTDICKFFLKVSELFDKTRKIEARVSADEDLKLSDLLKYYLRESQAAKDLLYRRSRSLVDYENANKALDKARAKNKDVLQAETSQQLCCQKFEKISESAKQELIDFKTRRVAAFRKNLVELAELELKHAKGNLQLLQNCLAVLNGDT
